From patent US20150110776A1 (PROTHENA BIOSCIENCES, published 2015)
Numbering of substitutions follows the chain as printed.

T1: human islet-amyloid polypeptide (IAPP) (human)
T1 construct: also called hIAPP; human IAPP
T1 peptide: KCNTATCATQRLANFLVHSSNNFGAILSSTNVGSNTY

T2: hIAPP peptide LSSTNVGSNTY, amino acids 27-37 of IAPP (human)
T2 peptide: LSSTNVGSNTY

T3: rat IAPP (rat, UniProt P12969 38-74)
T3 construct: Used as the soluble analyte in the Biacore assay in place of human IAPP; also called rat islet amyloid polypeptide
T3 peptide (looked up): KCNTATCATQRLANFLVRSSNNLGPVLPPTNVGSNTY

B1: murine monoclonal antibody 3H6 (antibody, V domains shown)
VH: EVKLEESGGGLVQPGGSMKLSCVASGFTFSNYWMYWVRQSPEKGLEWVAEIRLKSDNYATHYAESVKGRFTISRDDSKSSVYLQMNSLRAEDTGIYYCTIFDYWGQGTTVTVSS
VL: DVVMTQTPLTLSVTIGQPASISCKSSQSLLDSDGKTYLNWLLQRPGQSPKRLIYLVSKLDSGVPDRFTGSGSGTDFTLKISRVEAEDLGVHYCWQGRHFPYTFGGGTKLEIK
notes: also called m3H6; mouse 3H6
B2: humanized 3H6 antibody version H2L1 (antibody, V domains shown)
VH: EVQLVESGGGLVQPGGSLKLSCAASGFTFSNYWMYWVRQAPGKGLEWVGEIRLKSDNYATHYAESVKGRFTISRDDSKNTAYLQMDSLKTEDTAVYYCTTFDYWGQGTLVTVSS
VL: DVVMTQSPLSLPVTLGQPASISCKSSQSLLDSDGKTYLNWLQQRPGQSPKRLIYLVSKLDSGVPDRFSGSGSGTDFTLKISRVEAEDVGVHYCWQGRHFPYTFGQGTKLEIK
notes: also called h3H6-H2L1
B3: humanized 3H6 antibody version H3L2 (antibody, V domains shown)
VH: B2 VH with T100I
VL: B2 VL with H91Y
notes: also called h3H6-H3L2
B4: humanized 3H6 antibody version H1L1 (antibody, V domains shown)
VH: B2 VH with A81V, T100I
VL: B2 VL
notes: it was captured on an anti-human chip; also called h3H6-H1L1
B5: humanized 3H6 antibody version H2L2 (antibody, V domains shown)
VH: B2 VH
VL: B2 VL with H91Y
notes: also called h3H6-H2L2
B6: chimeric 3H6 antibody (antibody, V domains shown)
VH: B1 VH
VL: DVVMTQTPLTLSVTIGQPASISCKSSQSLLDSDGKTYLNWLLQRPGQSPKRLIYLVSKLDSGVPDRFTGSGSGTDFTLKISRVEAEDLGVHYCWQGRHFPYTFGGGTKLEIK
notes: also called ch3H6

Target: T1, human islet-amyloid polypeptide (IAPP)
Assay: hybridoma screen against hIAPP
Protocol: (§1) LA28-3H6 was originally a mouse hybridoma, producing an anti-hIAPP antibody of isotype Gamma 2a k, which resulted from a fusion of spleen cells from a mouse injected with hIAPP coupled to KLH via gluteraldehyde. The mouse was immunized with 25 μg of the conjugate in RIBI adjuvant on days 0, 7, 14, 21, 39, 46, 53, 60, 77, 84, and 91. […] On day 97 the mouse was injected with the IAPP/KLH conjugate both intraperitoneally and intravenously. Three days later the spleen was removed and a cell suspension was generated and frozen. Four months later the suspension was thawed and fused to SP2/0 cells. The fusion was screened against hIAPP, then epitope mapped against shorter peptides and found to react with […] (SEQ ID NO: 4), which corresponds to amino acids 27-37 of IAPP.

Row | binding result | Binder
1 | binds | B1

Target: T2, hIAPP peptide LSSTNVGSNTY, amino acids …
Assay: hybridoma epitope mapping against shorter peptides
Protocol: as §1

Row | binding result | Binder
2 | binds | B1

Target: T3, rat IAPP
Assay: SPR (Biacore), antibody captured on anti-human CM5 chip, rat IAPP as analyte, global 1:1 fit
Protocol: The affinity of various combinations of 3H6 humanized heavy chains and humanized light chain proteins for IAPP was analyzed on a Biacore instrument. Biacore analysis was performed by preparing an anti-human CM5 chip following the protocol provided in the kit. The 3H6 antibody was captured such that the maximum binding of rat IAPP would not exceed 20-30 RU. […] Data was blank subtracted to both an irrelevant sensor not containing 3H6 and 0 IAPP concentration to account for the dissociation of 3H6 from the anti-human capture. Data was then analyzed using a global 1:1 fit.

Row | Kd [nM] | koff [s⁻¹] | kon [M⁻¹ s⁻¹] | Binder
3 | 34.5 | 0.00294 | 85200 | B2
4 | 33.2 | 0.00625 | 188000 | B3
5 | 20.4 | 0.00231 | 113000 | B4
6 | 85.4 | 0.00646 | 75700 | B5
7 | 18.6 | 0.00152 | 81800 | B1
8 | 13.7 | 0.00147 | 107000 | B6
